# According to the supplement of paper PMC10201428:
# ± gives the standard deviation of the averaged measurements.
# Assays:
# [1] = tested on: VchCAST RNA-guided transposition machinery (E. coli BL21(DE3) host, lacZ target); experiment: relative integration efficiency (T-RL orientation) vs wild-type transposon end (log2 (normalized fold change)); transposon end mutated: left end; higher = more efficient transposition
# Outline: (§1)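 Each barcoded pool, 1549 left-end or 1849 right-end transposon variants in a pUC57 mini-transposon donor, went into E. coli BL21(DE3) with a T7-driven effector plasmid (CRISPR array, tniQ-cas8-cas7-cas6, tnsA-tnsB-tnsC). Plates contained 0.1 mM IPTG and were held at 37°C for 18 h. Input plasmids and genomic integration junctions were PCR-amplified and read by Illumina sequencing, with two biological output replicates and four reference barcodes. Relative integration efficiency is the fold change of output over input barcode abundance, normalised to the reference barcodes and log-transformed.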
# [2] = tested on: VchCAST RNA-guided transposition machinery (E. coli BL21(DE3) host, lacZ target); experiment: relative integration efficiency (T-LR orientation) vs wild-type transposon end (log2 (normalized fold change)); transposon end mutated: left end; higher = more efficient transposition
# Outline: as §1
Sequence,relative integration efficiency (log2) [1],relative integration efficiency (log2) [2]
AATGTTGTTGATGCAACCATAAAGTGATATTTAATAATTATTTATCAACCATAAAGTGATATTTAACCAACCATATATTGATATCTCACAAAACAACCATAAGTTGATATTTTTGTGAATCGAGTATTTCAGCAAAACTACTGCAGTAAGAA,-6.32 ± 2.1,-2.57 ± 2
AATGTTGTTGATGCAACCATAAAGTGATATTTAATAATTATTTATCAACCATATATTGATATCTCAATCAGCAACTTAACCACAAAAACAAAACAACCATAAGTTGATATTTTTGTGAATCGAGTATTTCAGCAAAACTACTGCAGTAAGAA,-4.61 ± 1.4,-2.91 ± 2.7
AATGTTGTTGATGCAACCATAAAGTGATATTTAATAATTATTTATCAACCATATATTGATATCTCACAAAACAACCATAAGTTGATATTTTTGTGAATCGAGTATTTCAGCAAAACTACTGCAGTAAGAAAGTTACTTCGTGGTATGGGAGG,-6.15 ± 0.83,-3.55 ± 2.2
AATGTTGTTGATGCAACCATAAAGTGATATTTAATAATTATTTCAACCATATATTGATATCTCACAAAACAACCATAAGTTGATATTTTTGTGAATCGAGTATTTCAGCAAAACTACTGCAGTAAGAAAGTTACTTCGTGGTATGGGAGGAT,-6.94 ± 1.9,-3.12 ± 1.5
AATGTTGTTGATGCAACCATAAAGTGATATTTAATAATTATTTCGAACTAGTTAACTAGTACGCAAACAACCATATATTGATATCTCACAAAACAACCATAAGTTGATATTTTTGTGAATCGAGTATTTCAGCAAAACTACTGCAGTAAGAA,-4.69 ± 1.4,< -10
AATGTTGTTGATGCAACCATAAAGTGATATTTAATAATTATTTCGCCGACTACCAGGCCAACACCCCACCAACGCGCGGTCGCGAGACACCCCACCAACGCCTGGTCGCGGGGGTGTCCGATCTGATTTCAGCAAAACTACTGCAGTAAGAA,-7.27 ± 1.6,-6.08 ± 3.8
AATGTTGTTGATGCAACCATAAAGTGATATTTAATAATTCAACCATATATTGATATCTCATTTATAATCAGCAACTTAACCACAAAAACAAAACAACCATAAGTTGATATTTTTGTGAATCGAGTATTTCAGCAAAACTACTGCAGTAAGAA,-3.05 ± 1.3,-2.63 ± 2.9
AATGTTGTTGATGCAACCATAAAGTGATATTTAATAATTGGCAGTGAGCGCAACGCAATTCACAAAACAACCATATATTGATATCTCACAAAACAACCATAAGTTGATATTTTTGTGAATCGAGTATTTCAGCAAAACTACTGCAGTAAGAA,-2.76 ± 1,-3.88 ± 2.9
AATGTTGTTGATGCAACCATAAAGTGATATTTAATACAACCATAAAGTGATATTTAACTTAACCACACAACCATATATTGATATCTCACAAAACAACCATAAGTTGATATTTTTGTGAATCGAGTATTTCAGCAAAACTACTGCAGTAAGAA,-5.26 ± 0.97,-3.38 ± 1.9
AATGTTGTTGATGCAACCATAAAGTGATATTTAATACAACCATATATTGATATCTCACAAAACAACCATAAGTTGATATTTTTGTGAATCGAGTATTTCAGCAAAACTACTGCAGTAAGAAAGTTACTTCGTGGTATGGGAGGATCAAGGAG,-4.83 ± 1.7,-2.15 ± 1.6
AATGTTGTTGATGCAACCATAAAGTGATATTTAATACAACCATATATTGATATCTCATTATTTATAATCAGCAACTTAACCACAAAAACAAAACAACCATAAGTTGATATTTTTGTGAATCGAGTATTTCAGCAAAACTACTGCAGTAAGAA,-4.61 ± 1.8,-3.41 ± 3.5
AATGTTGTTGATGCAACCATAAAGTGATATTTAATACGGCGGGCGCCGACTACCAGGCCAACACCCCACCAACGCGCGGTCGCGAGACACCCCACCAACGCCTGGTCGCGGGGGTGTCCGATCTGATTTCAGCAAAACTACTGCAGTAAGAA,-6.9 ± 1.3,-4.75 ± 2
AATGTTGTTGATGCAACCATAAAGTGATATTTAATAGTACTGCGCGACTGAAATCATCATTAAAACGCAACCATATATTGATATCTCACAAAACAACCATAAGTTGATATTTTTGTGAATCGAGTATTTCAGCAAAACTACTGCAGTAAGAA,-4.94 ± 0.88,-3.4 ± 1.6
AATGTTGTTGATGCAACCATAAAGTGATATTTAATCAACCATAAAGTGATATTTAACTTAACCACAACAACCATATATTGATATCTCACAAAACAACCATAAGTTGATATTTTTGTGAATCGAGTATTTCAGCAAAACTACTGCAGTAAGAA,-4.54 ± 1.2,-0.257 ± 1.2
AATGTTGTTGATGCAACCATAAAGTGATATTTAATCAACCATATATTGATATCTCAATTATTTATAATCAGCAACTTAACCACAAAAACAAAACAACCATAAGTTGATATTTTTGTGAATCGAGTATTTCAGCAAAACTACTGCAGTAAGAA,-2.99 ± 0.87,-0.334 ± 1.6
AATGTTGTTGATGCAACCATAAAGTGATATTTAATCAACCATATATTGATATCTCACAAAACAACCATAAGTTGATATTTTTGTGAATCGAGTATTTCAGCAAAACTACTGCAGTAAGAAAGTTACTTCGTGGTATGGGAGGATCAAGGAGC,-3.38 ± 1.4,-0.405 ± 1

Sequence,relative integration efficiency (log2) [1],relative integration efficiency (log2) [2]
AATGTTGTTGATGCAACCATAAAGTGATATTTAATCCGGCGGGCGCCGACTACCAGGCCAACACCCCACCAACGCGCGGTCGCGAGACACCCCACCAACGCCTGGTCGCGGGGGTGTCCGATCTGATTTCAGCAAAACTACTGCAGTAAGAA,-6.75 ± 1.3,-4.25 ± 1
AATGTTGTTGATGCAACCATAAAGTGATATTTACAACCATAAAGTGATATTTAACTTAACCACAAAACAACCATATATTGATATCTCACAAAACAACCATAAGTTGATATTTTTGTGAATCGAGTATTTCAGCAAAACTACTGCAGTAAGAA,-3.13 ± 0.76,1.11 ± 0.91
AATGTTGTTGATGCAACCATAAAGTGATATTTACAACCATATATTGATATCTCACAAAACAACCATAAGTTGATATTTTATAATTATTTATAATCAGCAACTTAACCACAAAATGTGAATCGAGTATTTCAGCAAAACTACTGCAGTAAGAA,-1.4 ± 0.65,0.848 ± 1
AATGTTGTTGATGCAACCATAAAGTGATATTTACAACCATATATTGATATCTCACAAAACAACCATAAGTTGATATTTTTGTGAATCGAGTATTTCAGCAAAACTACTGCAGTAAGAAAGTTACTTCGTGGTATGGGAGGATCAAGGAGCCA,-2.61 ± 1.1,0.662 ± 0.89
AATGTTGTTGATGCAACCATAAAGTGATATTTACAACCATATATTGATATCTCACAAACAACCATAAGTTGATATTTTTGTGAATCGAGTATTTCAGCAAAACTACTGCAGTAAGAAAGTTACTTCGTGGTATGGGAGGATCAAGGAGCCAA,-2 ± 0.74,2.04 ± 0.88
AATGTTGTTGATGCAACCATAAAGTGATATTTACAACCATATATTGATATCTCACAACAACCATAAGTTGATATTTTTGTGAATCGAGTATTTCAGCAAAACTACTGCAGTAAGAAAGTTACTTCGTGGTATGGGAGGATCAAGGAGCCAAT,-2.68 ± 0.7,2.75 ± 0.92
AATGTTGTTGATGCAACCATAAAGTGATATTTACAACCATATATTGATATCTCACACAACCATAAGTTGATATTTTTGTGAATCGAGTATTTCAGCAAAACTACTGCAGTAAGAAAGTTACTTCGTGGTATGGGAGGATCAAGGAGCCAATA,-2.53 ± 0.78,3.33 ± 0.87
AATGTTGTTGATGCAACCATAAAGTGATATTTACAACCATATATTGATATCTCATAATTATTTATAATCAGCAACTTAACCACAAAAACAAAACAACCATAAGTTGATATTTTTGTGAATCGAGTATTTCAGCAAAACTACTGCAGTAAGAA,-1.85 ± 0.76,-0.75 ± 1.4
AATGTTGTTGATGCAACCATAAAGTGATATTTACAACCATATATTGATATCTCTCACAACCATAAGTTGATATTTCTCTGATCATAGTCAGACCAACATTGCTACGACCCGTATTCGCACCGACACTGTGAATCGAGTATTTCAGCAAAACT,-2.28 ± 0.64,2.61 ± 1.1
AATGTTGTTGATGCAACCATAAAGTGATATTTACAACCATATATTGATATCTCTCACAACCATAAGTTGATATTTTTGTGAATCGAGTATTTCAGCAAAACTACTGCAGTAAGAAAGTTACTTCGTGGTATGGGAGGATCAAGGAGCCAATA,-2.79 ± 0.97,3.04 ± 0.96
AATGTTGTTGATGCAACCATAAAGTGATATTTACACGAAGTGGCAACTGCCGTGCTGGCGTGCGATGCAACCATATATTGATATCTCACAAAACAACCATAAGTTGATATTTTTGTGAATCGAGTATTTCAGCAAAACTACTGCAGTAAGAA,-2.73 ± 0.84,0.496 ± 0.1
AATGTTGTTGATGCAACCATAAAGTGATATTTACCGACTGCCTGCCATCCGCCGCCGCACCGCAGCCCAACCATATATTGATATCTCACAAAACAACCATAAGTTGATATTTTTGTGAATCGAGTATTTCAGCAAAACTACTGCAGTAAGAA,-2.99 ± 0.89,-3.03 ± 1.2
AATGTTGTTGATGCAACCATAAAGTGATATTTACCGACTGTCTGCCATCAGCCGCTTAACCGCAGCCCAACCATATATTGATATCTCACAAAACAACCATAAGTTGATATTTTTGTGAATCGAGTATTTCAGCAAAACTACTGCAGTAAGAA,-3.07 ± 0.93,-3.56 ± 0.14
AATGTTGTTGATGCAACCATAAAGTGATATTTACCGACTGTCTGCCATCCGCCGCTGAACCGCAGCCCAACCATATATTGATATCTCACAAAACAACCATAAGTTGATATTTTTGTGAATCGAGTATTTCAGCAAAACTACTGCAGTAAGAA,-2.98 ± 0.99,-3.04 ± 1.6
AATGTTGTTGATGCAACCATAAAGTGATATTTACCGACTGTCTGCCATCCGCCGCTGCACCGCAGCCCAACCATATATTGATATCTCACAAAACAACCATAAGTTGATATTTTTGTGAATCGAGTATTTCAGCAAAACTACTGCAGTAAGAA,-3.24 ± 1,-2.44 ± 0.78
